A short description of the data set: anti-Myc western blot of cell extracts and culture media. The note with it: glycan lost; control: wild-type C-terminally tagged full-length PEBP4. A general note: Immunoblotting shows a protein as a band on a membrane.

From paper PMC5336313 come the findings set out here.

B1: human PEBP4 (hPEBP4): T171A (protein)
parent chain: MGWTMRLVTAALLLGLMMVVTGDEDENSPCAHEALLDEDTLFCQGLEVFYPELGNIGCKVVPDCNNYRQKITSWMEPIVKFPGAVDGATYILVMVDPDAPSRAEPRQRFWRHWLVTDIKGADLKKGKIQGQELSAYQAPSPPAHSGFHRYQFFVYLQEGKVISLLPKENKTRGSWKMDRFLNRFHLGEPEASTQFMTQNYQDSPTLQAPRERASEPKHKNQAEIAAC
In the case of B1, the expression_or_secretion entry is on record as “no change”.
